Measured values reported in patent publication US20250076311A1 (Chugai, published 2025).
Where a chain is given by its changes, count along the chain named.

T1: human FcγRIIb constitutively expressed on MDCK cells (human, UniProt P31994 43-310)
T1 sequence (looked up): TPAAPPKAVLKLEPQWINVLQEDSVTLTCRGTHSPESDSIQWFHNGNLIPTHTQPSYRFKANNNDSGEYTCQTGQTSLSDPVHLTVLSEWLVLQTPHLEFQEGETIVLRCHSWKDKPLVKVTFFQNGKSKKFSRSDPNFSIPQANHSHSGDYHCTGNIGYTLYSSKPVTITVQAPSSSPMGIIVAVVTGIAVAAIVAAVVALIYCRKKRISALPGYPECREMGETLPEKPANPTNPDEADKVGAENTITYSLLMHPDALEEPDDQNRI

T2: soluble mouse FcγRII, His-tagged (mouse, UniProt P08101 30-210, limits assumed)
T2 construct: Captured on the chip through an anti-His antibody
T2 sequence (looked up): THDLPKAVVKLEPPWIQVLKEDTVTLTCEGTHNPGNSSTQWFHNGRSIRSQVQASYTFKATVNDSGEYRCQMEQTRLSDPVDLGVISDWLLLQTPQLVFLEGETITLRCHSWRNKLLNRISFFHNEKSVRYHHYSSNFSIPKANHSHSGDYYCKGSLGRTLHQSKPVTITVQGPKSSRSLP

B1: M103205H795-P1545m/M103202L889-SK1 (antibody, human IgG1, kappa, name in EU numbering)
heavy: QVTLKESGPVLVKPTETLTLTCTVSGIDLSHDDISWVRQAPGKGLEWVGIISYAGSTYYASWAKGRLTISKDTSKNQVVLTMTNMDPVDTATYYCARGVPAYSHGGDLWGQGTLVTVSSASTKGPSVFPLAPSSKSTSGGTAALGCLVKDYFPEPVTVSWNSGALTSGVHTFPAVLQSSGLYSLSSVVTVPSSSLGTQTYICNVNHKPSNTKVDKKVEPKSCDKTHTCPPCPAPELLGGPSVFLFPPKPKDTLMISRTPEVTCVVVDVSHEDPEVKFNWYVDGVEVHNAKTKPREEQYNSTYRVVSVLTVLHRDWLNGKEYKCKVSNKALPAPIEKTISKAKGQPREPQVYTLPPSREEMTKNQVSLTCLVKGFYPSDIAVEWESNGQPENNYKTTPPVLDSKGSFFLYSKLTVKKSRWQQGNVFSCSVMHEALHNHYTQKSLSLSP
light: DIVMTQSPATLSLSPGERATLSCTSSQSVYHANWLSWFQQKPGQPPKLLIYWASTLAYGVPSRFSGSGSGTDFTLTISSLQPEDAATYYCAGGYGGGRYAFGQGTKVEIKRTVAAPSVFIFPPSDEQLKSGTASVVCLLNNFYPREAKVQWKVDNALQSGNSQESVTEQDSKDSTYSLSSTLTLSKADYEKHKVYACEVTHQGLSSPVTKSFNRGEC
notes: copies: 2 + 2
B2: M103205H795-P1546m/M103202L889-SK1 (antibody, human IgG1, kappa, name in EU numbering)
heavy: B1 heavy with K403D, G404R
light: B1 light
notes: copies: 2 + 2
B3: M103205H795-P1553m/M103202L889-SK1 (antibody, human IgG1, kappa, name in EU numbering)
heavy: B1 heavy with R313Q, G387R, K403D, G404R
light: B1 light
notes: copies: 2 + 2
B4: M103205H795-P1555m/M103202L889-SK1 (antibody, human IgG1, kappa, name in EU numbering)
heavy: B1 heavy with R313Q, E390R, K403D, G404R
light: B1 light
notes: copies: 2 + 2
B5: M103205H795-P1547m/M103202L889-SK1 (antibody, human IgG1, kappa, name in EU numbering)
heavy: B1 heavy with K403D, G404K
light: B1 light
notes: copies: 2 + 2
B6: MS1032LO06-P1378m (antibody, human IgG1, kappa, name in EU numbering)
heavy: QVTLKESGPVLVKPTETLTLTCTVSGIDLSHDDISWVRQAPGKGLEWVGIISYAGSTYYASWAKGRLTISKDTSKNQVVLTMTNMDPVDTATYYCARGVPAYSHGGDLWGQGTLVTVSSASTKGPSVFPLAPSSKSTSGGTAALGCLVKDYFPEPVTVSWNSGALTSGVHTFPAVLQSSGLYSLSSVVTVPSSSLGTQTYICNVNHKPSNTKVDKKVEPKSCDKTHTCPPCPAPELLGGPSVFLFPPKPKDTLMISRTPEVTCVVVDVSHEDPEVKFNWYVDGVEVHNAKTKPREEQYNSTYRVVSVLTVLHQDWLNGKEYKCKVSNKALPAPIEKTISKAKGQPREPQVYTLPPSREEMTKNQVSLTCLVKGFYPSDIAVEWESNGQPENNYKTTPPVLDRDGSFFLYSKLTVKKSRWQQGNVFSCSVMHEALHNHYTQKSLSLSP
light: B1 light
notes: also called M103205H795-P1378m; copies: 2 + 2
B7: MS1032LO06-P1499m (antibody, human IgG1, kappa, name in EU numbering)
heavy: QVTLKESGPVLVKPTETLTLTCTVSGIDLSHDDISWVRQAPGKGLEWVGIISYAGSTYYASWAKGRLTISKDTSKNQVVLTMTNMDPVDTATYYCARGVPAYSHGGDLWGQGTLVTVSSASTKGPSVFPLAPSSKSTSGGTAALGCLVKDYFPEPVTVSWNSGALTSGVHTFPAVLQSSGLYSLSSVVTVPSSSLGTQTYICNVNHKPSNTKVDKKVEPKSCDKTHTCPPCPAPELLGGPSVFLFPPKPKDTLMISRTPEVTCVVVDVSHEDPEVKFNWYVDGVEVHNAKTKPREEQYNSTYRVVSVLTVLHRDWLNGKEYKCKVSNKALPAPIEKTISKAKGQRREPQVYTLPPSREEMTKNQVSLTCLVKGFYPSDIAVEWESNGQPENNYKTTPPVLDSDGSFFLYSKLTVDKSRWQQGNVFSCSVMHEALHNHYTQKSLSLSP
light: B1 light
notes: also called M103205H795-P1499m
B8: M103205H795-P1549m/M103202L889-SK1 (antibody, human IgG1, kappa, name in EU numbering)
heavy: B1 heavy with G387R, K403D, G404R, K415D
light: B1 light
notes: copies: 2 + 2
B9: M103205H795-P1548m/M103202L889-SK1 (antibody, human IgG1, kappa, name in EU numbering)
heavy: B1 heavy with G387R, K403R, K415D
light: B1 light
notes: copies: 2 + 2
B10: M103205H795-SG141/M103202L889-SK1 (antibody, human IgG1, kappa, name in EU numbering)
heavy: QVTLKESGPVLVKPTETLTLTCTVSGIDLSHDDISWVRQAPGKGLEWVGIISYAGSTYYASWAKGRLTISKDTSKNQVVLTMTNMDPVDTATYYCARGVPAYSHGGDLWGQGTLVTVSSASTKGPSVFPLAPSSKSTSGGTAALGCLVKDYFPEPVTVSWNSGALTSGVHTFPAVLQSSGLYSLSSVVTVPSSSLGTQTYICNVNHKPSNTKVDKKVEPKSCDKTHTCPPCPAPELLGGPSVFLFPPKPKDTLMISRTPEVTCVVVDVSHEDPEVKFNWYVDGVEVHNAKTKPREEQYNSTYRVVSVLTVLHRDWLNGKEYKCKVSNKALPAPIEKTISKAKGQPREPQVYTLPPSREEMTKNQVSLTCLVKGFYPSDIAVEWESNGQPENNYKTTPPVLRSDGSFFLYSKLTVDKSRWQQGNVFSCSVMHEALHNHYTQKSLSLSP
light: B1 light
notes: copies: 2 + 2
B11: M103205H795-P1551m/M103202L889-SK1 (antibody, human IgG1, kappa, name in EU numbering)
heavy: B1 heavy with E390R, K403D, G404R, K415D
light: B1 light
notes: copies: 2 + 2
B12: M103205H795-P1552m/M103202L889-SK1 (antibody, human IgG1, kappa, name in EU numbering)
heavy: B1 heavy with R313Q, G387R, K403R
light: B1 light
notes: copies: 2 + 2
B13: MS1032LO06-P1383m (antibody, human IgG1, kappa, name in EU numbering)
heavy: B1 heavy with S402R, K403D
light: B1 light
notes: also called M103205H795-P1383m; copies: 2 + 2
B14: M103205H795-P1550m/M103202L889-SK1 (antibody, human IgG1, kappa, name in EU numbering)
heavy: B1 heavy with E390R, K403R, K415D
light: B1 light
notes: copies: 2 + 2
B15: M103205H795-MY199/M103202L889-SK1 (antibody, human IgG1, kappa, name in EU numbering)
heavy: B1 heavy with G238N, H270E, R313Q, A332K, K403D, K415D
light: B1 light
notes: substitutions in EU numbering, introduced into M103205H795-SG1
B16: M103205H795-MY206/M103202L889-SK1 (antibody, human IgG1, kappa, name in EU numbering)
heavy: B1 heavy with G238N, S241V, H270D, Q297L, R313Q, A332K, K403D, K415D
light: B1 light
notes: as for B15
B17: M103205H795-MY518/M103202L889-SK1 (antibody)
heavy: B1 heavy with L237W, G238N, H270D, Q297L, R313Q, K328T, A332K, K403D, K415D
light: B1 light
B18: M103205H795-MY174/M103202L889-SK1 (antibody, human IgG1, kappa, name in EU numbering)
heavy: B1 heavy with G238N, H270E, R313Q, P398I, K403D, K415D
light: B1 light
notes: EU numbering
B19: MS_M103205H795-SG1/M103202L889-SK1 (antibody, human IgG1, kappa)
heavy: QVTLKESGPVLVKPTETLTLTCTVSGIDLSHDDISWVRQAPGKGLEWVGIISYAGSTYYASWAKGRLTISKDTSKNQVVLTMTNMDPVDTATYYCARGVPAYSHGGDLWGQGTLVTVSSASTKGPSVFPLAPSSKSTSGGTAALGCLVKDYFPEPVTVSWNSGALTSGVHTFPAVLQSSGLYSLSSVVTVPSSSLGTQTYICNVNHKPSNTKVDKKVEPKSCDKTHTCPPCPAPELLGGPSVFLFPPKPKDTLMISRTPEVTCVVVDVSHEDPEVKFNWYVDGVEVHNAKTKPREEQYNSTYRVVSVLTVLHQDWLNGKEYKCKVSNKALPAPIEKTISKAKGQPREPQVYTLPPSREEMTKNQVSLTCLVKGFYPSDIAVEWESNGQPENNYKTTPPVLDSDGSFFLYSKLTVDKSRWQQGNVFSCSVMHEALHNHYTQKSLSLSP
light: B1 light
notes: parent antibody of the Fc variants; human heavy chain constant region SG1; also called MS1032LO06-SG1

Each binder was assayed against T1, human FcγRIIb constitutively expressed … (assay: cell-based or functional assay).
B1 was tested, and the “celluar uptake (labelled human latent myostatin taken up as antigen-antibody complex)” value (shortened to “celluar uptake”) was 7.73 relative to SG1 = 1.00.
For B2, the “celluar uptake” value was 5.1 relative to SG1 = 1.00.
In the case of B3, the “celluar uptake” value is reported as 2.86 relative to SG1 = 1.00.
With B4 the “celluar uptake” value was 3.71 relative to SG1 = 1.00.
For B5, the “celluar uptake” value was 4.85 relative to SG1 = 1.00.
B6 was tested, and the “celluar uptake” value was 3.86 relative to SG1 = 1.00.
B7 was tested, and the “celluar uptake” value was 3.61 relative to SG1 = 1.00.
For B8, the “celluar uptake” value was 2.03 relative to SG1 = 1.00.
For B9, the “celluar uptake” value was 2.3 relative to SG1 = 1.00.
With B10 the “celluar uptake” value was 4.42 relative to SG1 = 1.00.
In the case of B11, the “celluar uptake” value is reported as 2.91 relative to SG1 = 1.00.
With B12 the “celluar uptake” value was 4.44 relative to SG1 = 1.00.
In the case of B13, the “celluar uptake” value is reported as 5.68 relative to SG1 = 1.00.
For B14, the “celluar uptake” value was 6.43 relative to SG1 = 1.00.

The binders below were run against T3, cynomolgus monkey FcγRIIIaS extracellular domain with C-terminal His-tag (cynomolgus monkey, UniProt A3RFZ7 21-206 (rhesus entry)) (assay: SPR Biacore, antibody captured, FcgR analyte).
T3 construct: also called cyno FcgRIIIaS; cynoFcγRIIIaS; not shown: His-tag added to C-terminus
Method: (§1) The kinetic analysis of interactions between these antibodies and FcγR was carried out using BIACORE® T200 or BIACORE® 4000 (GE Healthcare). HBS-EP+ (GE Healthcare) was used as the running buffer, and the measurement temperature was set to 25° C. […] After the measurement, the antibody captured on the chip was washed off by allowing reaction with 10 mM glycine-HCl, pH1.5 and 25 mM NaOH so that the chip was regenerated and used repeatedly. The sensorgrams obtained as measurement results were analyzed by the 1:1 Langmuir binding model using the BIACORE® Evaluation Software to calculate the binding rate constant ka (L/mol/s) and dissociation rate constant kd (1/s), and the dissociation constant KD (mol/L) was calculated from these values. […] Regarding such interactions, KD values were calculated using the following 1:1 binding model described in BIACORE® T100 Software Handbook BR1006-48 Edition AE.
Target sequence in this assay (A3RFZ7 21-206): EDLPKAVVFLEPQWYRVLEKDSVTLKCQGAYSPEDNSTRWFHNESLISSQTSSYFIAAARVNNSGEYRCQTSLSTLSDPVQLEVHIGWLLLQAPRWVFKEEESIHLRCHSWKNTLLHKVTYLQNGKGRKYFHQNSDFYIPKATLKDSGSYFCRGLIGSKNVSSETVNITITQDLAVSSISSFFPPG
With B15 the “KD fold (SG1 = 1)” value was 0.09 fold.
In the case of B16, the “KD fold (SG1 = 1)” value is reported as 0.11 fold.
For B17, the “KD fold (SG1 = 1)” value was 0.09 fold.
B18 was tested, and the “KD fold (SG1 = 1)” value was 0.14 fold and the Kd was 2500 nM.

These binders were tested against T4, cynomolgus monkey FcγRIIIaS extracellular domain with C-terminal His-tag (cynomolgus monkey, UniProt A3RFZ7 21-206 (rhesus entry)) (assay: SPR (BIACORE), antibody captured, FcgR analyte).
T4 construct: also called cyno FcgRIIIaS; cynoFcγRIIIaS; not shown: His-tag added to the C-terminus
Method: as §1
Target sequence in this assay (A3RFZ7 21-206): as above
With B19 the Kd was 560 nM.

These binders were tested against T2, soluble mouse FcγRII, His-tagged (assay: SPR, mouse FcγRII captured via His-tag, antigen-antibody complex injected, pH 7.4, 25 C).
Method: Regarding the produced Fc region variant-containing antibodies, binding assays between soluble mouse FcγRII and antigen-antibody complexes were performed using BIACORE® T200 (GE Healthcare). Soluble mouse FcγRII was produced in the form of a His-tagged molecule by a method known to those skilled in the art. An appropriate amount of an anti-His antibody was fixed onto Sensor chip CM5 (GE Healthcare) by the amine coupling method using a His capture kit (GE Healthcare) to capture mouse FcγRII. Next, an antibody-antigen complex and a running buffer (as a reference solution) were injected, and interaction was allowed to take place with the mouse FcγRII captured onto the sensor chip. 20 mM N-(2-Acetamido)-2-aminoethanesulfonic acid, 150 mM NaCl, 1.2 mM CaCl₂), and 0.05% (w/v) TWEEN® 20 at pH7.4 was used as the running buffer, and the respective buffer was also used to dilute the soluble mouse FcγRII. To regenerate the sensor chip, 10 mM glycine-HCl at pH1.5 was used. All measurements were carried out at 25° C. […] To calculate the parameters, the BIACORE® T100 Evaluation Software (GE Healthcare) was used.
In the case of B1, the “biacore IC binding (relative, SG1 = 1.00)” value is reported as 1.8 relative to SG1.
In the case of B2, the “biacore IC binding (relative, SG1 = 1.00)” value is reported as 1.41 relative to SG1.
With B3 the “biacore IC binding (relative, SG1 = 1.00)” value was 1.47 relative to SG1.
For B4, the “biacore IC binding (relative, SG1 = 1.00)” value was 2.01 relative to SG1.
B5 was tested, and the “biacore IC binding (relative, SG1 = 1.00)” value was 1.33 relative to SG1.
With B6 the “biacore IC binding (relative, SG1 = 1.00)” value was 1.23 relative to SG1.
For B7, the “biacore IC binding (relative, SG1 = 1.00)” value was 1.98 relative to SG1.
For B8, the “biacore IC binding (relative, SG1 = 1.00)” value was 1.22 relative to SG1.
For B9, the “biacore IC binding (relative, SG1 = 1.00)” value was 1.37 relative to SG1.
With B10 the “biacore IC binding (relative, SG1 = 1.00)” value was 1.64 relative to SG1.
With B11 the “biacore IC binding (relative, SG1 = 1.00)” value was 1.33 relative to SG1.
B12 was tested, and the “biacore IC binding (relative, SG1 = 1.00)” value was 2.19 relative to SG1.
For B13, the “biacore IC binding (relative, SG1 = 1.00)” value was 1.41 relative to SG1.
In the case of B14, the “biacore IC binding (relative, SG1 = 1.00)” value is reported as 1.63 relative to SG1.
